The values that follow come from publication PMC4046112, “eIF2B is a decameric guanine nucleotide exchange factor with a γ2ε2 tetrameric core” (Nature Communications, 2014).

T1: eIF2Bγ, FLAG-tagged (γ-subunit of yeast eIF2B) (S. cerevisiae, UniProt P09032 1-578)
T1 construct: eIF2B gamma subunit (GCD1), S. cerevisiae; Bait of all eIF2B complex purifications; also called GCD1-FLAG2-His6; source: S. cerevisiae strains overexpressing eIF2B subunits, purified (anti-FLAG resin, FLAG peptide elution); not shown: FLAG2, C-terminal, kept
T1 sequence (looked up): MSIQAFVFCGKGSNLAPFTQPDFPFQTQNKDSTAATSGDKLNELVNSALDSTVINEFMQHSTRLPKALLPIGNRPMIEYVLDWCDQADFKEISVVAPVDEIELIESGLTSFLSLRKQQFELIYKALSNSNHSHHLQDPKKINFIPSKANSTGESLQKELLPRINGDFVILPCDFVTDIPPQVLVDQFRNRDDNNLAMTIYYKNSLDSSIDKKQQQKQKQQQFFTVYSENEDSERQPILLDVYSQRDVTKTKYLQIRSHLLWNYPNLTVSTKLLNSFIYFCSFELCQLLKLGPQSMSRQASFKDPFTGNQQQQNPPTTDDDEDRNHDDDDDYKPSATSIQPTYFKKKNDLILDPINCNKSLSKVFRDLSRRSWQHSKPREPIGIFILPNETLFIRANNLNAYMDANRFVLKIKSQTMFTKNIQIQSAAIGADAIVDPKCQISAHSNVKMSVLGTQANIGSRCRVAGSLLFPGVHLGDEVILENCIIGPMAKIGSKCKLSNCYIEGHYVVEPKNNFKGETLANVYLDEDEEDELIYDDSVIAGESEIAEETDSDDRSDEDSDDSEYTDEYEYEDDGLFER

B1: eIF2γ, His-tagged (γ-subunit of yeast eIF2) (natural protein, S. cerevisiae, UniProt P32481 1-527, looked up)
chain: MSDLQDQEPSIIINGNLEPVGEPDIVEETEVVAQETQETQDADKPKKKVAFTGLEEDGETEEEKRKREFEEGGGLPEQPLNPDFSKLNPLSAEIINRQATINIGTIGHVAHGKSTVVRAISGVQTVRFKDELERNITIKLGYANAKIYKCQEPTCPEPDCYRSFKSDKEISPKCQRPGCPGRYKLVRHVSFVDCPGHDILMSTMLSGAAVMDAALLLIAGNESCPQPQTSEHLAAIEIMKLKHVIILQNKVDLMREESALEHQKSILKFIRGTIADGAPIVPISAQLKYNIDAVNEFIVKTIPVPPRDFMISPRLIVIRSFDVNKPGAEIEDLKGGVAGGSILNGVFKLGDEIEIRPGIVTKDDKGKIQCKPIFSNIVSLFAEQNDLKFAVPGGLIGVGTKVDPTLCRADRLVGQVVGAKGHLPNIYTDIEINYFLLRRLLGVKTDGQKQAKVRKLEPNEVLMVNIGSTATGARVVAVKADMARLQLTSPACTEINEKIALSRRIEKHWRLIGWATIKKGTTLEPIA
notes: eIF2 gamma subunit (GCD11), S. cerevisiae; also called GCD11-His6; source: S. cerevisiae strain GP3511 co-overexpressing all three eIF2 subunits, purified (Ni-chelate, heparin-Sepharose); not shown: His6, C-terminal, kept
B2: eIF2Bβ (β-subunit of yeast eIF2B) (natural protein, S. cerevisiae, UniProt P32502 1-381, looked up)
chain: MSSQAFTSVHPNAATSDVNVTIDTFVAKLKRRQVQGSYAIALETLQLLMRFISAARWNHVNDLIEQIRDLGNSLEKAHPTAFSCGNVIRRILAVLRDEVEEDTMSTTVTSTSVAEPLISSMFNLLQKPEQPHQNRKNSSGSSSMKTKTDYRQVAIQGIKDLIDEIKNIDEGIQQIAIDLIHDHEILLTPTPDSKTVLKFLITARERSNRTFTVLVTEGFPNNTKNAHEFAKKLAQHNIETLVVPDSAVFALMSRVGKVIIGTKAVFVNGGTISSNSGVSSVCECAREFRTPVFAVAGLYKLSPLYPFDVEKFVEFGGSQRILPRMDPRKRLDTVNQITDYVPPENIDIYITNVGGFNPSFIYRIAWDNYKQIDVHLDKNKA
notes: eIF2B beta subunit (GCD7), S. cerevisiae; Subunit of the purified eIF2B complexes, written alone for the subunit pairs; also called eIF2B β-subunit; β/Gcd7
B3: eIF2Bε (ε-subunit of yeast eIF2B, untagged) (natural protein, S. cerevisiae, UniProt P32501 1-712, looked up)
chain: MAGKKGQKKSGLGNHGKNSDMDVEDRLQAVVLTDSYETRFMPLTAVKPRCLLPLANVPLIEYTLEFLAKAGVHEVFLICSSHANQINDYIENSKWNLPWSPFKITTIMSPEARCTGDVMRDLDNRGIITGDFILVSGDVLTNIDFSKMLEFHKKMHLQDKDHISTMCLSKASTYPKTRTIEPAAFVLDKSTSRCIYYQDLPLPSSREKTSIQIDPELLDNVDEFVIRNDLIDCRIDICTSHVPLIFQENFDYQSLRTDFVKGVISSDILGKHIYAYLTDEYAVRVESWQTYDTISQDFLGRWCYPLVLDSNIQDDQTYSYESRHIYKEKDVVLAQSCKIGKCTAIGSGTKIGEGTKIENSVIGRNCQIGENIRIKNSFIWDDCIIGNNSIIDHSLIASNATLGSNVRLNDGCIIGFNVKIDDNMDLDRNTKISASPLKNAGSRMYDNESNEQFDQDLDDQTLAVSIVGDKGVGYIYESEVSDDEDSSTEACKEINTLSNQLDELYLSDDSISSATKKTKKRRTMSVNSIYTDREEIDSEFEDEDFEKEGIATVERAMENNHDLDTALLELNTLRMSMNVTYHEVRIATITALLRRVYHFIATQTLGPKDAVVKVFNQWGLLFKRQAFDEEEYIDLMNIIMEKIVEQSFDKPDLILFSALVSLYDNDIIEEDVIYKWWDNVSTDPRYDEVKKLTVKWVEWLQNADEESSSEEE
notes: eIF2B epsilon subunit (GCD6), S. cerevisiae; Subunit of the purified eIF2B complexes, written alone for the subunit pairs; also called eIF2B ε-subunit; ε/GCD6
B4: eIF2Bα (α-subunit of yeast eIF2B) (natural protein, S. cerevisiae, UniProt P14741 1-305, looked up)
chain: MSEFNITETYLRFLEEDTEMTMPIAAIEALVTLLRIKTPETAAEMINTIKSSTEELIKSIPNSVSLRAGCDIFMRFVLRNLHLYGDWENCKQHLIENGQLFVSRAKKSRNKIAEIGVDFIADDDIILVHGYSRAVFSLLNHAANKFIRFRCVVTESRPSKQGNQLYTLLEQKGIPVTLIVDSAVGAVIDKVDKVFVGAEGVAESGGIINLVGTYSVGVLAHNARKPFYVVTESHKFVRMFPLSSDDLPMAGPPLDFTRRTDDLEDALRGPTIDYTAQEYITALITDLGVLTPSAVSEELIKMWYD
notes: eIF2B alpha subunit (GCN3), S. cerevisiae; Subunit of the purified eIF2B complex, written alone for the subunit pairs; also called eIF2B α-subunit; GCN3
B5: eIF2Bδ (δ-subunit of yeast eIF2B) (natural protein, S. cerevisiae, UniProt P12754 1-651, looked up)
chain: MSESEAKSRSATPPSKAKQATPTTTAAANGEKKLTNKELKELKKQEKAAKRAAMKQANGISIEQQQQQAQMKKEKKQLQREQQQKREQKQKNANKKKQNERNVKKSTLFGHLETTEERRATILALTSAVSSPKTSRITAAGLMVPVVASALSGSNVLTASSLMPVGPNASSTVSASAPASTTTTLPASSAALSAGTSSASTNTPTAIQQEIASSNASDVAKTLASISLEAGEFNVIPGISSVIPTVLEQSFDNSSLISSVKELLLNKDLIHPSILLLTSHLAHYKIVGSIPRCIAMLEVFQIVIKDYQTPKGTTLSRNLTSYLSHQIDLLKKARPLSVTMGNAIRWLKQEISLIDPSTPDKAAKKDLCEKIGQFAKEKIELADQLIIDNASTQIEESTTIVTYGSSKVLTELLLHNAISLKKNIKVIVVDSRPLFEGRKMAETLRNAGVNVMYALITSLDTIFNMDVDYVFLGAHSILSNGFLYSRAGTAMLAMSAKRRNIPVLVCCESLKFSQRVQLDSVTFNELADPNDLVNIDYENPVERRGNKGALLNQFIKERKFEKKKLAMENKPKGNKIGGKKGSEGESKDASNEEDSNSKNILDGWQELPSLNIVNILYDLTPPEYIKKVITEFGALPPSSVPVILREYKGSA
notes: eIF2B delta subunit (GCD2), S. cerevisiae; Subunit of the purified eIF2B complexes, written alone for the subunit pairs; also called eIF2B δ-subunit; δ/Gcd2

The target of assay [1] is yeast FLAG-tagged eIF2B complex (five subunits α–ε; decamer) (S. cerevisiae) (UniProt P14741). The assay is described as follows: native MS; FLAG-purified five-subunit eIF2B in 500 mM ammonium acetate; high collision energy for dissociation; decamer = two copies of each of five subunits.
For assay [2] the target is unchanged. The assay is described as follows: native MS; eIF2-eIF2B preparations (purified at low ionic strength, or formed with phosphorylated eIF2 on anti-FLAG resin) exchanged into 500 mM ammonium acetate.
In assay [3] the target is T1, eIF2Bγ, FLAG-tagged (γ-subunit of yeast …). The assay is described as follows: cross-linking; BS3-d0/d4 (1:1) added to purified complexes (eIF2:eIF2B, four-subunit eIF2B, eIF2Bγε core), 30 min at 26 °C, trypsin digest, nanoLC-MS/MS, MassMatrix search; the text does not tell which cross-link came from which complex. The conditions noted are these: both partners purified.

The target in assay [4] is B5. Described as above. The conditions noted are these: both partners purified.
Assay [5] concerns the target eIF2α phosphorylated at Ser51 (subunit of phosphorylated eIF2) (S. cerevisiae) (UniProt P20459). The assay is described as follows: label-free quantitative proteomics (iBAQ) of the purified complex; eIF2-eIF2B complex purified after phosphorylation of eIF2, trypsin digest, nanoLC-MS/MS, iBAQ intensities compared; eIF2B subunits relative to FLAG-tagged γ (set to 1), eIF2 subunits relative to α.

For assay [6], the target named is B3. The assay is described as follows: cross-linking; BS3-d0/d4 (1:1) added to purified complexes (eIF2:eIF2B, four-subunit eIF2B, eIF2Bγε core), 30 min at 26 °C, trypsin digest, nanoLC-MS/MS, MassMatrix search; the text does not tell which cross-link came from which complex. The conditions noted are these: both partners purified.
Assay [7] concerns the target T1, eIF2Bγ, FLAG-tagged (γ-subunit of yeast …). The assay is described as follows: label-free quantitative proteomics (iBAQ) of the purified complex; eIF2-eIF2B complex purified after phosphorylation of eIF2, trypsin digest, nanoLC-MS/MS, iBAQ intensities compared; eIF2B subunits relative to FLAG-tagged γ (set to 1), eIF2 subunits relative to α. To be noted: both partners purified.

For orientation: stoichiometry N means the number of molecules, sites or subunits per partner or assembly. Regarding “yeast FLAG-tagged eIF2B complex (five subunits α–ε; decamer), P14741 1-305; P32502 1-381; P09032 1-578; P12754 1-651; P32501 1-712”, the stoichiometry N in assay [1] and in assay [2] was 10 in each case.

In the case of B1, the binding result in assay [3] and in assay [4] was “binds” each time. In addition, the stoichiometry N in assay [5] is 1.67.

Consider B2, for which the binding result in assay [6] and in assay [4] was “binds” in each case. Also, the “stoichiometry N” value in assay [7] came out at 1.4.

As for B3, the “stoichiometry N” value in assay [7] amounted to 0.76.

B4: in assay [7], the “stoichiometry N” value turned out to be 1.12.

Take B5: in assay [6], the binding result is “binds”. The “stoichiometry N” value in assay [7] was 0.95.
